± gives the standard deviation of the averaged measurements.
What follows are sequences tested on Saccharomyces cerevisiae (assay: protein stability index of tFT-peptide fusion (C-terminal peptide) (PSI (0-1 scale)); higher = more stable (slower turnover)). Details: genetic background: wild type; temperature: 30 C.
Protocol: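 MPS profiling in S. cerevisiae of the yeast C-terminome library: the last 12 aa of each annotated ORF are fused to the C-terminus of a sfGFP-mCherry timer, after a GGGS linker. Cells are FACS-sorted into 8 mCherry/sfGFP bins and deep-sequenced. PSI runs from 0 (unstable) to 1 (stable); wild type and das1Δ backgrounds, two technical replicates each.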

Question: For AGTLDGRLAIWY [BPH1 C-terminal 12 aa], which protein stability index is on record?
Answer: 0.686 ± 0.014

Question: Which protein stability index does the source give for AIAKSIPKRVGL [PUT1 C-terminal 12 aa] here?
Answer: 0.6998 ± 0.0057

Question: With AINEGHEGFGLA [TOM1 C-terminal 12 aa] as the sequence, how does the protein stability index read?
Answer: 0.687 ± 0.024

Question: AKNGDYVKIEQP [YMR315W C-terminal 12 aa] was tested. Which protein stability index did it give?
Answer: 0.729 ± 0.019

Question: ALAASRAEQPPA [YCR049C C-terminal 12 aa] was tested. Which protein stability index did it give?
Answer: 0.712 ± 0.012

Question: For ALEEALMDRLQF [ATG29 C-terminal 12 aa], which protein stability index is on record?
Answer: 0.6947 ± 0.0064

Question: How did the protein stability index turn out when ALGLAGVAMLFL [SED1 C-terminal 12 aa] was run?
Answer: 0.647 ± 0.0089

Question: For “ALGMYFLGPALK [YGL063C-A C-terminal 12 aa]”, which protein stability index is on record?
Answer: 0.7443 ± 0.0028

Question: With ALSKDGIYTIAN [PAU1 C-terminal 12 aa] as the sequence, how does the protein stability index read?
Answer: 0.721 ± 0.017

Question: Which protein stability index does the source give for AMYDKITESQKK [CHD1 C-terminal 12 aa] here?
Answer: 0.683 ± 0.0096

Question: ANSLDAIFLKSK [YNL150W C-terminal 12 aa] was tested. Which protein stability index did it give?
Answer: 0.669 ± 0.021

Question: How did the protein stability index turn out when APTPEACESCSG [RNR3 C-terminal 12 aa] was run?
Answer: 0.6947 ± 0.003

Question: How did the protein stability index turn out when AREQLYEKLEQA [MIC27 C-terminal 12 aa] was run?
Answer: 0.6716 ± 0.0039

Question: With ARMTGETPVAKH [YHM2 C-terminal 12 aa] as the sequence, how does the protein stability index read?
Answer: 0.677 ± 0.016

Question: For ATEITPLLNIAE [VLD1 C-terminal 12 aa], which protein stability index is on record?
Answer: 0.773 ± 0.033

Question: “ATSLSPNKASAS [YJL026C-A C-terminal 12 aa]” was tested. Which protein stability index did it give?
Answer: 0.6601 ± 0.0011

Question: ATVSKIIKLDRK [MYO4 C-terminal 12 aa] was tested. Which protein stability index did it give?
Answer: 0.691 ± 0.025

Question: With AVHSFNTPAVQS [COX1 C-terminal 12 aa] as the sequence, how does the protein stability index read?
Answer: 0.676 ± 0.019

Question: How did the protein stability index turn out when AWAKKLKSMRRS [TAM41 C-terminal 12 aa] was run?
Answer: 0.634 ± 0.021

Question: For AWIADLDHTVQP [CHS6 C-terminal 12 aa], which protein stability index is on record?
Answer: 0.708 ± 0.011

Question: For AYECAKHFLMKN [MRS4 C-terminal 12 aa], which protein stability index is on record?
Answer: 0.5284 ± 0.0001

Question: With AYETLTGSKWSH [ADE1 C-terminal 12 aa] as the sequence, how does the protein stability index read?
Answer: 0.704 ± 0.015

Question: Which protein stability index does the source give for CADCGTILNNFR [DGR2 C-terminal 12 aa] here?
Answer: 0.748 ± 0.045

Question: Which protein stability index does the source give for CCCFLLELVCDN [YDR210W C-terminal 12 aa] here?
Answer: 0.523 ± 0.018

Question: How did the protein stability index turn out when CDVKSSIIVGIL [YLR358C C-terminal 12 aa] was run?
Answer: 0.655 ± 0.059

Question: “CIEIARHFVLKE [YEL009C-A C-terminal 12 aa]” was tested. Which protein stability index did it give?
Answer: 0.708 ± 0.027

Question: For CKQNSNCEYLYM [YOR365C C-terminal 12 aa], which protein stability index is on record?
Answer: 0.699 ± 0.012

Question: Which protein stability index does the source give for CLRTVLKSDEIK [SFA1 C-terminal 12 aa] here?
Answer: 0.663 ± 0.021

Question: For “CLSGIGLFPVSS [YHL030W-A C-terminal 12 aa]”, which protein stability index is on record?
Answer: 0.69 ± 0.021

Question: Which protein stability index does the source give for CSTERPKRARCD [YOR342C C-terminal 12 aa] here?
Answer: 0.695 ± 0.029

Question: With DALDIANRIGYI [RPL25 C-terminal 12 aa] as the sequence, how does the protein stability index read?
Answer: 0.683 ± 0.012

Question: How did the protein stability index turn out when DDDDDGPYADDS [GSY2 C-terminal 12 aa] was run?
Answer: 0.706 ± 0.019

Question: Which protein stability index does the source give for DDDEFDEDEFED [PAH1 C-terminal 12 aa] here?
Answer: 0.7188 ± 0.0021

Question: With DDKPKIPTMLNA [YME1 C-terminal 12 aa] as the sequence, how does the protein stability index read?
Answer: 0.671 ± 0.046

Question: How did the protein stability index turn out when DDPDENTALLGA [YDR338C C-terminal 12 aa] was run?
Answer: 0.711 ± 0.034

Question: For DDSSSTDTEERE [SSK2 C-terminal 12 aa], which protein stability index is on record?
Answer: 0.683 ± 0.029

Question: With DEDEFENQRQQF [YIL055C C-terminal 12 aa] as the sequence, how does the protein stability index read?
Answer: 0.709 ± 0.076

Question: DEEKQLSLSDMI [YOR186W C-terminal 12 aa] was tested. Which protein stability index did it give?
Answer: 0.672 ± 0.019

Question: Which protein stability index does the source give for DEFCSQRSYTRF [MIN7 C-terminal 12 aa] here?
Answer: 0.701 ± 0.032

Question: With DEQGNELSPRNY [MID2 C-terminal 12 aa] as the sequence, how does the protein stability index read?
Answer: 0.723 ± 0.035

Question: How did the protein stability index turn out when DFFDYDLLFQND [PIP2 C-terminal 12 aa] was run?
Answer: 0.788 ± 0.034

Question: With DFSKFKDSRLYD [YND1 C-terminal 12 aa] as the sequence, how does the protein stability index read?
Answer: 0.671 ± 0.01

Question: Which protein stability index does the source give for DGGLAGPVTVRD [FMP45 C-terminal 12 aa] here?
Answer: 0.713 ± 0.048

Question: For DGSADLGGWETM [UBR2 C-terminal 12 aa], which protein stability index is on record?
Answer: 0.733 ± 0.048

Question: DIIKSIGDSYSI [NSE3 C-terminal 12 aa] was tested. Which protein stability index did it give?
Answer: 0.734 ± 0.076

Question: How did the protein stability index turn out when DIYEIRGTALDD [DSL1 C-terminal 12 aa] was run?
Answer: 0.699 ± 0.052

Question: How did the protein stability index turn out when “DKKVNNNIILFL [YAL037C-A C-terminal 12 aa]” was run?
Answer: 0.704 ± 0.011

Question: For DLEGVLWRSYYA [BLM10 C-terminal 12 aa], which protein stability index is on record?
Answer: 0.711 ± 0.0089

Question: How did the protein stability index turn out when DLIESTFRSITQ [PAN3 C-terminal 12 aa] was run?
Answer: 0.7049 ± 0.0029

Question: Which protein stability index does the source give for DLLDKDVLLISE [CDC7 C-terminal 12 aa] here?
Answer: 0.6734 ± 0.0014

Question: Which protein stability index does the source give for DLSLVFGNHEST [HEM15 C-terminal 12 aa] here?
Answer: 0.727 ± 0.02

Question: Which protein stability index does the source give for DNEGSRKMLKIE [CIN8 C-terminal 12 aa] here?
Answer: 0.662 ± 0.042

Question: How did the protein stability index turn out when DNKPKLSDVEKD [GEA2 C-terminal 12 aa] was run?
Answer: 0.707 ± 0.017

Question: For DNQPWQLARCGR [HRT1 C-terminal 12 aa], which protein stability index is on record?
Answer: 0.718 ± 0.014

Question: For DPEPPKEDPHDH [TCP1 C-terminal 12 aa], which protein stability index is on record?
Answer: 0.704 ± 0.051

Question: Which protein stability index does the source give for DQAAKTFVIKKD [MDM38 C-terminal 12 aa] here?
Answer: 0.668 ± 0.028

Question: How did the protein stability index turn out when DQFQKVEKSIVK [RRF1 C-terminal 12 aa] was run?
Answer: 0.675 ± 0.061

Question: Which protein stability index does the source give for DQLEDTSSHDEL [MPD2 C-terminal 12 aa] here?
Answer: 0.7 ± 0.025

Question: DSDADIEELLEE [PGA2 C-terminal 12 aa] was tested. Which protein stability index did it give?
Answer: 0.689 ± 0.046

Question: DSEDDEDESDDE [SUI2 C-terminal 12 aa] was tested. Which protein stability index did it give?
Answer: 0.717 ± 0.094

Question: DSFIPLQPKKKI [YML037C C-terminal 12 aa] was tested. Which protein stability index did it give?
Answer: 0.684 ± 0.015

Question: How did the protein stability index turn out when DSVEMKFDKLNI [RBS1 C-terminal 12 aa] was run?
Answer: 0.748 ± 0.085

Question: With DTDGAKISIINN [FKH2 C-terminal 12 aa] as the sequence, how does the protein stability index read?
Answer: 0.7033 ± 0.002

Question: For DVEDVLIDTLCN [PEX22 C-terminal 12 aa], which protein stability index is on record?
Answer: 0.678 ± 0.03

Question: For DVEIDEDEEYFY [SPO12 C-terminal 12 aa], which protein stability index is on record?
Answer: 0.71 ± 0.01

Question: For DVYVLFYERVYD [UBP7 C-terminal 12 aa], which protein stability index is on record?
Answer: 0.682 ± 0.03

Question: For DWLIDVIKEEQL [ARL1 C-terminal 12 aa], which protein stability index is on record?
Answer: 0.695 ± 0.028

Question: With EADFRKRFPSKV [PRK1 C-terminal 12 aa] as the sequence, how does the protein stability index read?
Answer: 0.669 ± 0.021

Question: EAGDSDILTTLA [RPL30 C-terminal 12 aa] was tested. Which protein stability index did it give?
Answer: 0.687 ± 0.0078

Question: How did the protein stability index turn out when “EAQLSSNDEPLP [YCR102W-A C-terminal 12 aa]” was run?
Answer: 0.721 ± 0.089

Question: ECPSVPPTVRAY [SDH1 C-terminal 12 aa] was tested. Which protein stability index did it give?
Answer: 0.55 ± 0.0063

Question: EDGDNWEVVGKK [TIF3 C-terminal 12 aa] was tested. Which protein stability index did it give?
Answer: 0.727 ± 0.012

Question: Which protein stability index does the source give for EDHKVDGNKKED [VMA21 C-terminal 12 aa] here?
Answer: 0.707 ± 0.011

Question: How did the protein stability index turn out when EDIKQALKQATN [CYS3 C-terminal 12 aa] was run?
Answer: 0.654 ± 0.023

Question: Which protein stability index does the source give for EEAREEFENIAL [SMI1 C-terminal 12 aa] here?
Answer: 0.645 ± 0.017

Question: Which protein stability index does the source give for EEARQEKSGQES [CRZ1 C-terminal 12 aa] here?
Answer: 0.659 ± 0.011

Question: How did the protein stability index turn out when EECVKVQWESRT [TSR4 C-terminal 12 aa] was run?
Answer: 0.69407 ± 0.00052

Question: Which protein stability index does the source give for EEIRRENFRVIE [KTR7 C-terminal 12 aa] here?
Answer: 0.677 ± 0.029

Question: For EELQGNARALNN [SNN1 C-terminal 12 aa], which protein stability index is on record?
Answer: 0.69 ± 0.019

Question: Which protein stability index does the source give for EGEYADNVEPLA [PRY1 C-terminal 12 aa] here?
Answer: 0.685 ± 0.02

Question: How did the protein stability index turn out when EHIGAQNTGDGR [YER187W C-terminal 12 aa] was run?
Answer: 0.679 ± 0.033

Question: For EHTILSDSDETH [RIM15 C-terminal 12 aa], which protein stability index is on record?
Answer: 0.717 ± 0.022

— the supplement of paper PMC10724198
